Legend:
[1] = tested on: GFP-14-3-3β and its binding proteins; assay: GFP-14-3-3β co-IP with LC-MS/MS label-free quantification, untreated versus PP1c-treated; set-up: species or system human; conditions: label-free quantification
GFP-14-3-3β = GFP-14-3-3β co-IP with LC-MS/MS, untreated GFP-14-3-3β versus GFP control (14-3-3 interactome); assay type: binding, human; conditions: label-free quantification
[2] = log2 difference, pairwise comparison PP1 vs untreated, 3 replicates each
[3] = log2 difference, pairwise comparison untreated vs GFP, 3 replicates each

B1: VDAC2 (protein, UniProt P45880 2-294, looked up)
Non-selective voltage-gated …: ATHGQTCARPMCIPPSYADLGKAARDIFNKGFGFGLVKLDVKTKSCSGVEFSTSGSSNTDTGKVTGTLETKYKWCEYGLTFTEKWNTDNTLGTEIAIEDQICQGLKLTFDTTFSPNTGKKSGKIKSSYKRECINLGCDVDFDFAGPAIHGSAVFGYEGWLAGYQMTFDSAKSKLTRNNFAVGYRTGDFQLHTNVNDGTEFGGSIYQKVCEDLDTSVNLAWTSGTNCTRFGIAAKYQLDPTASISAKVNNSSLIGVGYTQTLRPGVKLTLSALVDGKSINAGGHKVGLALELEA
For B1, which “Difference (log2), PP1 vs untreated” value ([1]; PP1 vs untreated) is on record?
Its value is 0.9262 log2.

What about the “Difference (log2), untreated vs GFP” value (GFP-14-3-3β; untreated vs GFP) of the same molecule?
The value was 2.092 log2.

B2: DPM1 (protein, UniProt O60762 2-260, looked up)
Dolichol-phosphate …: ASLEVSRSPRRSRRELEVRSPRQNKYSVLLPTYNERENLPLIVWLLVKSFSESGINYEIIIIDDGSPDGTRDVAEQLEKIYGSDRILLRPREKKLGLGTAYIHGMKHATGNYIIIMDADLSHHPKFIPEFIRKQKEGNFDIVSGTRYKGNGGVYGWDLKRKIISRGANFLTQILLRPGASDLTGSFRLYRKEVLEKLIEKCVSKGYVFQMEMIVRARQLNYTIGEVPISFVDRVYGESKLGGNEIVSFLKGLLTLFATT
What does the source list for B2?
Difference (log2), PP1 vs untreated ([1]; PP1 vs untreated): 0.914 log2; Difference (log2), untreated vs GFP (GFP-14-3-3β; untreated vs GFP): 1.004 log2

B3: SRPR (protein, UniProt P08240 1-638, looked up)
Signal recognition particle …: MLDFFTIFSKGGLVLWCFQGVSDSCTGPVNALIRSVLLQERGGNNSFTHEALTLKYKLDNQFELVFVVGFQKILTLTYVDKLIDDVHRLFRDKYRTEIQQQSALSLLNGTFDFQNDFLRLLREAEESSKIRAPTTMKKFEDSEKAKKPVRSMIETRGEKPKEKAKNSKKKGAKKEGSDGPLATSKPVPAEKSGLPVGPENGVELSKEELIRRKREEFIQKHGRGMEKSNKSTKSDAPKEKGKKAPRVWELGGCANKEVLDYSTPTTNGTPEAALSEDINLIRGTGSGGQLQDLDCSSSDDEGAAQNSTKPSATKGTLGGMFGMLKGLVGSKSLSREDMESVLDKMRDHLIAKNVAADIAVQLCESVANKLEGKVMGTFSTVTSTVKQALQESLVQILQPQRRVDMLRDIMDAQRRQRPYVVTFCGVNGVGKSTNLAKISFWLLENGFSVLIAACDTFRAGAVEQLRTHTRRLSALHPPEKHGGRTMVQLFEKGYGKDAAGIAMEAIAFARNQGFDVVLVDTAGRMQDNAPLMTALAKLITVNTPDLVLFVGEALVGNEAVDQLVKFNRALADHSMAQTPRLIDGIVLTKFDTIDDKVGAAISMTYITSKPIVFVGTGQTYCDLRSLNAKAVVAALMKA
With B3 as the molecule, how does the “Difference (log2), PP1 vs untreated” value ([1]; PP1 vs untreated) read?
Its value is 0.9083 log2.

And the “Difference (log2), untreated vs GFP” value (GFP-14-3-3β; untreated vs GFP)?
The value was -0.7055 log2.

B4: TMCO1 (protein, UniProt Q9UM00 1-239, looked up)
Calcium load-activated …: MPRKRKCDLRAVRVGLLLGGGGVYGSRFRFTFPGCRALSPWRVRVQRRRCEMSTMFADTLLIVFISVCTALLAEGITWVLVYRTDKYKRLKAEVEKQSKKLEKKKETITESAGRQQKKKIERQEEKLKNNNRDLSMVRMKSMFAIGFCFTALMGMFNSIFDGRVVAKLPFTPLSYIQGLSHRNLLGDDTTDCSFIFLYILCTMSIRQNIQKILGLAPSRAATKQAGGFLGPPPPSGKFS
How did the “Difference (log2), PP1 vs untreated” value ([1]; PP1 vs untreated) turn out when B4 was run?
The value was 0.8935 log2.

And the “Difference (log2), untreated vs GFP” value (GFP-14-3-3β; untreated vs GFP)?
The value was 2.261 log2.

B5: U2SURP (protein, UniProt O15042 2-1029, looked up)
U2 snRNP-associated SURP …: ADKTPGGSQKASSKTRSSDVHSSGSSDAHMDASGPSDSDMPSRTRPKSPRKHNYRNESARESLCDSPHQNLSRPLLENKLKAFSIGKMSTAKRTLSKKEQEELKKKEDEKAAAEIYEEFLAAFEGSDGNKVKTFVRGGVVNAAKEEHETDEKRGKIYKPSSRFADQKNPPNQSSNERPPSLLVIETKKPPLKKGEKEKKKSNLELFKEELKQIQEERDERHKTKGRLSRFEPPQSDSDGQRRSMDAPSRRNRSSGVLDDYAPGSHDVGDPSTTNLYLGNINPQMNEEMLCQEFGRFGPLASVKIMWPRTDEERARERNCGFVAFMNRRDAERALKNLNGKMIMSFEMKLGWGKAVPIPPHPIYIPPSMMEHTLPPPPSGLPFNAQPRERLKNPNAPMLPPPKNKEDFEKTLSQAIVKVVIPTERNLLALIHRMIEFVVREGPMFEAMIMNREINNPMFRFLFENQTPAHVYYRWKLYSILQGDSPTKWRTEDFRMFKNGSFWRPPPLNPYLHGMSEEQETEAFVEEPSKKGALKEEQRDKLEEILRGLTPRKNDIGDAMVFCLNNAEAAEEIVDCITESLSILKTPLPKKIARLYLVSDVLYNSSAKVANASYYRKFFETKLCQIFSDLNATYRTIQGHLQSENFKQRVMTCFRAWEDWAIYPEPFLIKLQNIFLGLVNIIEEKETEDVPDDLDGAPIEEELDGAPLEDVDGIPIDATPIDDLDGVPIKSLDDDLDGVPLDATEDSKKNEPIFKVAPSKWEAVDESELEAQAVTTSKWELFDQHEESEEEENQNQEEESEDEEDTQSSKSEEHHLYSNPIKEEMTESKFSKYSEMSEEKRAKLREIELKVMKFQDELESGKRPKKPGQSFQEQVEHYRDKLLQREKEKELERERERDKKDKEKLESRSKDKKEKDECTPTRKERKRRHSTSPSPSRSSSGRRVKSPSPKSERSERSERSHKESSRSRSSHKDSPRDVSKKAKRSPSGSRTPKRSRRSRSRSPKKSGKKSRSQSRSPHRSHKKSKKNKH
Which results are given for B5?
Difference (log2), PP1 vs untreated ([1]; PP1 vs untreated): 0.8713 log2; Difference (log2), untreated vs GFP (GFP-14-3-3β; untreated vs GFP): 0.6 log2

B6: RPN2 (protein, UniProt P04844 23-631, looked up)
Dolichyl-diphosphooligosacchar …: LTPTHYLTKHDVERLKASLDRPFTNLESAFYSIVGLSSLGAQVPDAKKACTYIRSNLDPSNVDSLFYAAQASQALSGCEISISNETKDLLLAAVSEDSSVTQIYHAVAALSGFGLPLASQEALSALTARLSKEETVLATVQALQTASHLSQQADLRSIVEEIEDLVARLDELGGVYLQFEEGLETTALFVAATYKLMDHVGTEPSIKEDQVIQLMNAIFSKKNFESLSEAFSVASAAAVLSHNRYHVPVVVVPEGSASDTHEQAILRLQVTNVLSQPLTQATVKLEHAKSVASRATVLQKTSFTPVGDVFELNFMNVKFSSGYYDFLVEVEGDNRYIANTVELRVKISTEVGITNVDLSTVDKDQSIAPKTTRVTYPAKAKGTFIADSHQNFALFFQLVDVNTGAELTPHQTFVRLHNQKTGQEVVFVAEPDNKNVYKFELDTSERKIEFDSASGTYTLYLIIGDATLKNPILWNVADVVIKFPEEEAPSTVLSQNLFTPKQEIQHLFREPEKRPPTVVSNTFTALILSPLLLLFALWIRIGANVSNFTFAPSTIIFHLGHAAMLGLMYVYWTQLNMFQTLKYLAILGSVTFLAGNRMLAQQAVKRTAH
B6 was tested. Which “Difference (log2), PP1 vs untreated” value [1, 2] did it give?
The value was 2.419.

What about the “Difference (log2), untreated vs GFP” value (GFP-14-3-3β; [3]) of the same molecule?
Its value is -1.824.

B7: TRIM56 (protein, UniProt Q9BRZ2 1-755, looked up)
E3 ubiquitin-protein ligase …: MVSHGSSPSLLEALSSDFLACKICLEQLRAPKTLPCLHTYCQDCLAQLADGGRVRCPECRETVPVPPEGVASFKTNFFVNGLLDLVKARACGDLRAGKPACALCPLVGGTSTGGPATARCLDCADDLCQACADGHRCTRQTHTHRVVDLVGYRAGWYDEEARERQAAQCPQHPGEALRFLCQPCSQLLCRECRLDPHLDHPCLPLAEAVRARRPGLEGLLAGVDNNLVELEAARRVEKEALARLREQAARVGTQVEEAAEGVLRALLAQKQEVLGQLRAHVEAAEEAARERLAELEGREQVARAAAAFARRVLSLGREAEILSLEGAIAQRLRQLQGCPWAPGPAPCLLPQLELHPGLLDKNCHLLRLSFEEQQPQKDGGKDGAGTQGGEESQSRREDEPKTERQGGVQPQAGDGAQTPKEEKAQTTREEGAQTLEEDRAQTPHEDGGPQPHRGGRPNKKKKFKGRLKSISREPSPALGPNLDGSGLLPRPIFYCSFPTRMPGDKRSPRITGLCPFGPREILVADEQNRALKRFSLNGDYKGTVPVPEGCSPCSVAALQSAVAFSASARLYLINPNGEVQWRRALSLSQASHAVAALPSGDRVAVSVAGHVEVYNMEGSLATRFIPGGKASRGLRALVFLTTSPQGHFVGSDWQQNSVVICDGLGQVVGEYKGPGLHGCQPGSVSVDKKGYIFLTLREVNKVVILDPKGSLLGDFLTAYHGLEKPRVTTMVDGRYLVVSLSNGTIHIFRVRSPDS
How did the “Difference (log2), PP1 vs untreated” value ([1]; PP1 vs untreated) turn out when B7 was run?
Its value is 0.8378 log2.

And the “Difference (log2), untreated vs GFP” value (GFP-14-3-3β; untreated vs GFP)?
Its value is -0.02313 log2.

B8: PGAM5 (protein, UniProt Q96HS1 1-289, looked up)
Serine/threonine-protein …: MAFRQALQLAACGLAGGSAAVLFSAVAVGKPRAGGDAEPRPAEPPAWAGGARPGPGVWDPNWDRREPLSLINVRKRNVESGEEELASKLDHYKAKATRHIFLIRHSQYHVDGSLEKDRTLTPLGREQAELTGLRLASLGLKFNKIVHSSMTRAIETTDIISRHLPGVCKVSTDLLREGAPIEPDPPVSHWKPEAVQYYEDGARIEAAFRNYIHRADARQEEDSYEIFICHANVIRYIVCRALQFPPEGWLRLSLNNGSITHLVIRPNGRVALRTLGDTGFMPPDKITRS
B8 was tested. Which “Difference (log2), PP1 vs untreated” value [1, 2] did it give?
The value was 2.342.

What about the “Difference (log2), untreated vs GFP” value (GFP-14-3-3β; [3]) of the same molecule?
The value was -0.7531.

B9: SRP68 (protein, UniProt Q9UHB9 1-627, looked up)
Signal recognition particle …: MAAEKQVPGGGGGGGSGGGGGSGGGGSGGGRGAGGEENKENERPSAGSKANKEFGDSLSLEILQIIKESQQQHGLRHGDFQRYRGYCSRRQRRLRKTLNFKMGNRHKFTGKKVTEELLTDNRYLLLVLMDAERAWSYAMQLKQEANTEPRKRFHLLSRLRKAVKHAEELERLCESNRVDAKTKLEAQAYTAYLSGMLRFEHQEWKAAIEAFNKCKTIYEKLASAFTEEQAVLYNQRVEEISPNIRYCAYNIGDQSAINELMQMRLRSGGTEGLLAEKLEALITQTRAKQAATMSEVEWRGRTVPVKIDKVRIFLLGLADNEAAIVQAESEETKERLFESMLSECRDAIQVVREELKPDQKQRDYILEGEPGKVSNLQYLHSYLTYIKLSTAIKRNENMAKGLQRALLQQQPEDDSKRSPRPQDLIRLYDIILQNLVELLQLPGLEEDKAFQKEIGLKTLVFKAYRCFFIAQSYVLVKKWSEALVLYDRVLKYANEVNSDAGAFKNSLKDLPDVQELITQVRSEKCSLQAAAILDANDAHQTETSSSQVKDNKPLVERFETFCLDPSLVTKQANLVHFPPGFQPIPCKPLFFDLALNHVAFPPLEDKLEQKTKSGLTGYIKGIFGFRS
Which “Difference (log2), PP1 vs untreated” value ([1]; PP1 vs untreated) does the source give for B9 here?
The value was 0.7891 log2.

And the “Difference (log2), untreated vs GFP” value (GFP-14-3-3β; untreated vs GFP)?
Its value is 0.06806 log2.

Reference: publication PMC7367873, “Dissecting the sequence determinants for dephosphorylation by the catalytic subunits of phosphatases PP1 and PP2A” (Nature Communications, 2020)
